Columns and labels:
[1] = system: T1, Selective delivery molecule 10 (SDM-10)
T1 sequence: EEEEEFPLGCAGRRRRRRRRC

[2] = system: T2, Selective delivery molecule 9 (SDM-9)
T2 sequence: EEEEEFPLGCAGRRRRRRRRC

Substance | Cy5 fluorescence enhancement after protease cleavage (dequenching), 1 uM SDM-10 in TCNB buffer [1] | fluorescent cleavage fragment on polyacrylamide gel (1 nM MMP-9, 1 uM SDM-10, 24 h, 37 C) [1] | Cy5 donor emission after protease cleavage (FRET disruption), 1 uM SDM-9 in TCNB buffer [2] | Cy7 acceptor emission after protease cleavage (FRET disruption), 1 uM SDM-9 in TCNB buffer [2]
MMP-9 | the fluorescence was enhanced >100-fold upon protease cleavage | After cleavage by MMP-9 the fragment containing the fluorophore is dequenched (becoming highly fluorescent) and runs near the bottom of the gel |  | 
matrix metalloproteinase-2 (MMP-2) |  |  | a large 8-fold increase the Cy5 donor emission | 2-fold decrease in the Cy7 emission

Source: patent US20180057536
